This note sets out measurements from PMC6093860.

Assay [1] concerns the target human complement component 9 (C9), wild type (human). The assay is described as follows: cryo-EM structure; polyC9 formed from purified human C9 at 1.1-1.5 mg mL^-1 in 10 mM HEPES pH 7.5, 50 mM NaCl with amphipol A8-35 (0.015-0.02 mg mL^-1), 37 °C overnight; ring of C9 subunits.
The target is the same in assay [2]. The description is as above. The source holds these as a separate data set.

Read-outs that look alike come from different tables or passages of the source.

The stoichiometry N is the number of molecules, sites or subunits per partner or assembly. Take “human complement component 9 (C9), wild type (natural protein)”: the stoichiometry N in assay [1] turned out to be 22; in assay [2], 21.
